Results published in patent US20230126400A1.
Blank lines part the entries; values can stand above or below the binder they belong to.

Tests used:
Details in all cases: remark: other sources report otherwise
[1] = molecular target: human MS4A4A (human), Q96JQ5; experiment: flow cytometry (anti-mouse IgG Fc-APC) on 300.19 cells transfected with human MS4A4A (Plate D); untransfected 300.19 cells (Plate C): mean 122
[2] = molecular target: human MS4A4A (human), Q96JQ5; experiment: functional affinity, FACS titration on stably transfected 300.19 cells
[3] = molecular target: human MS4A4A (human), Q96JQ5; experiment: flow cytometry (anti-mouse IgG Fc-APC) on U937 cells transfected with human MS4A4A (Plate B); untransfected U937 cells (Plate A): mean 313

Mean : APC-A [1]: 3600
Kd [2]: 14 nM
Mean : APC-A [3]: 7370
B1: anti-MS4A4A antibody 4A-21 (murine) (antibody, IgG1, V domains shown)
VH: QIQLVQSGPELKKPGETVKISCKASGYIFTSYGLSWVKQTPGKGLKWMGWINTYSGVPTYANDFKGRFAFSLETSASTTYLRINNLKNDDTATYFCARSLVDYWGQGTPLTVSS
VL: not shown

Kd [2]: 8.7 nM
B2: anti-MS4A4A antibody 4A-21, huIgG1 chimera (antibody, V domains shown)
VH: B1 VH
VL: not shown
